Data: patent US20230193513A1

B1: GLP1R-3 (antibody, from a related filing, V domains shown, part only)
VH: QVQLVESGGGVVQPGRSLRLSCAASGFTFSSYGMHWVRQAPGKGLEWVSFISYDESNKYYADSVKGRFTISRDNSKNTLYLQMNSLRAEDTAVYYCAKHMSMQEGAVTGEGQAAKEFIAWLVKGRVRADLVGDAFDVWGQGTLVTVSS
VL: QSVLTQPPSVSAAPGQKVTISCSGSSSNIADNYVSWYQQLPGTAPKLLIYDNNKRPSGIPDRFSGSKSGTSATLGITGLQTGDEADYYCGTWDNYLGAGVFGGGTKLTVLG
B2: GLP1R-59-241 (antibody, part only; not given: light chain, part only)
heavy: QVQLVQSGAEVKKPGSSVKVSCKASGGTFSDYAISWVRQAPGQGLEWMGGIIPIFGTTNYAQKFQGRVTITADESTSTAYMELSSLRSEDTAVYYCAKHMSMQGSVAGGTFTSDVSSYLEGQAAKEFIAWLVKGGPSFIRADLVGDAFDVWGQGTLVTVSSASASTKGPSVFPLAPCSRSTSESTAALGCLVKDYFPEPVTVSWNSGALTSGVHTFPAVLQSSGLYSLSSVVTVPSSNFGTQTYTCNVDHKPSNTKVDKTVERKCCVECPPCPAPPVAGPSVFLFPPKPKDTLMISRTPEVTCVVVDVSHEDPEVQFNWYVDGVEVHNAKTKPREEQFNSTFRVVSVLTVVHQDWLNGKEYKCKVSNKGLPAPIEKTISKTKGQPREPQVYTLPPSREEMTKNQVSLTCLVKGFYPSDIAVEWESNGQPENNYKTTPPMLDSDGSFFLYSKLTVDKSRWQQGNVFSCSVMHEALHNHYTQKSLSLSPG
B3: GLP1R-59-243 (antibody, part only; not given: light chain, part only)
heavy: QVQLVQSGAEVKKPGSSVKVSCKASGGTFSTYGINWVRQAPGQGLEWMGGIIPIFGTANYAQKFQGRVTITADESTSTAYMELSSLRSEDTAVYYCARANQHFFGKGDNLAARDFINWLIQTKITDGSNPGYHYYGMDVWGQGTLVTVSSASASTKGPSVFPLAPCSRSTSESTAALGCLVKDYFPEPVTVSWNSGALTSGVHTFPAVLQSSGLYSLSSVVTVPSSNFGTQTYTCNVDHKPSNTKVDKTVERKCCVECPPCPAPPVAGPSVFLFPPKPKDTLMISRTPEVTCVVVDVSHEDPEVQFNWYVDGVEVHNAKTKPREEQFNSTFRVVSVLTVVHQDWLNGKEYKCKVSNKGLPAPIEKTISKTKGQPREPQVYTLPPSREEMTKNQVSLTCLVKGFYPSDIAVEWESNGQPENNYKTTPPMLDSDGSFFLYSKLTVDKSRWQQGNVFSCSVMHEALHNHYTQKSLSLSPG

Target: glucagon-like peptide-1 receptor (GLP1R) (Homo sapiens (Human)) (UniProt P43220)
Sequence (P43220 24-463): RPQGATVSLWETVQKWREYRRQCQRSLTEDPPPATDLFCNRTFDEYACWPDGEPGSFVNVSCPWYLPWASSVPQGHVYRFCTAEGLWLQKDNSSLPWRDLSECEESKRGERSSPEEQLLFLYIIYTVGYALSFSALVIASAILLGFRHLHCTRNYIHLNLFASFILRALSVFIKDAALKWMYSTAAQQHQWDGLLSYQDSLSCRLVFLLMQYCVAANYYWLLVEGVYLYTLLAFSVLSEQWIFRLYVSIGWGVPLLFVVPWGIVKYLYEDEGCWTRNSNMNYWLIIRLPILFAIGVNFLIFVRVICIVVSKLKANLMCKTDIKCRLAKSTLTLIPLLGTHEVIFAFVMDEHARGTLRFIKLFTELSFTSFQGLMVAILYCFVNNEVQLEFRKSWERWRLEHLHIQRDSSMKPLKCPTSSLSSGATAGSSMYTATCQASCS
Assay: cell-based or functional assay

Row | Binder | EC50 (nM) of Exendin-4 induced cAMP activity with the antibody | EC50 (nM) of GLP1 (7-36)-induced signaling with GLP1R IgG (+100 nM) | fold difference of the EC50 against no antibody | fold-diff of the Exendin-4 EC50 against Exendin-4 alone | EC50 (nM) of the IgG as agonist, functional assay on GLP-1R overexpressing cells
1 | B1 | 0.63 nM | 1.31 nM | 2.2 fold | 5.4 fold | –
2 | B2 | – | – | – | – | 0.722 nM
3 | B3 | – | – | – | – | 0.821 nM
